Several values for one entry are separate records, joined by “and”; a condition that tells them apart may be missing. Equal entries are not always repeated.
T1: FtsZ (E. coli, UniProt P0A9A6 1-383)
T1 construct: FtsZ, Escherichia coli cell division protein; oligomers of variable size without GTP, polymers with GTP; also called FtsZ-GTP; GTP-triggered FtsZ polymers
T1 sequence (looked up): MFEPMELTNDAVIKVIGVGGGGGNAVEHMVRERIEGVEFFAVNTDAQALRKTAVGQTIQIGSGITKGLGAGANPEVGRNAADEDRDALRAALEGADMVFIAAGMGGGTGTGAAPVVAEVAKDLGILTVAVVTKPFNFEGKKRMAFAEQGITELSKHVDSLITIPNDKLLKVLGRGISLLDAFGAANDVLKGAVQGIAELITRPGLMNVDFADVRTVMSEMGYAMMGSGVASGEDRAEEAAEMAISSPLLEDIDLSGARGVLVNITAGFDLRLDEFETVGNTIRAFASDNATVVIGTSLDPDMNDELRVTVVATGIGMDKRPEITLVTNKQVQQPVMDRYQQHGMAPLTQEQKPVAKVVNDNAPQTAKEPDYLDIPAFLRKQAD

B1: MatP (natural protein, E. coli, UniProt P0A8N0 1-150, looked up)
chain: MKYQQLENLESGWKWKYLVKKHREGELITRYIEASAAQEAVDVLLSLENEPVLVNGWIDKHMNPELVNRMKQTIRARRKRHFNAEHQHTRKKSIDLEFIVWQRLAGLAQRRGKTLSETIVQLIEDAENKEKYANKMSSLKQDLQALLGKE
notes: MatP, Escherichia coli, untagged; sediments as a dimer (2.5 S); also called Ter macrodomain organizer MatP; MatP-Alexa 488 (labelled tracer)
B2: MatP (natural protein, E. coli, UniProt P0A8N0 1-150, looked up)
chain: B1 chain
modifications: Alexa Fluor 488 or Alexa Fluor 647 at amino groups, on the tracer fraction only (<1 mol of dye per mole of protein)
notes: MatP, E. coli, untagged; Labelled MatP was used as a tracer mixed with unlabelled MatP; Sediments as a dimer (2.5 S); also called Ter macrodomain organizer MatP; MatP-Alexa 488
B3: FtsZ (natural protein, E. coli, UniProt P0A9A6 1-383, looked up)
chain: T1 sequence (looked up)
modifications: Alexa Fluor 488 or Alexa Fluor 647 at amino groups, on the tracer fraction only (<1 mol of dye per mole of protein)
notes: FtsZ, E. coli; Oligomers of variable size without GTP, polymers with GTP; also called FtsZ-Alexa 488; FtsZ-Alexa 647

Key:
FtsZ [1] = target: T1, FtsZ; assay: AUC; multi-signal sedimentation velocity (MSSV), 20 uM FtsZ and 7 uM MatP, absorbance at 250 and 280 nm, 48,000 rpm; dilute solution buffer (50 mM Tris-HCl pH 7.5, 5 mM MgCl2) with 100 mM KCl, no GTP; details: both partners purified
FtsZ [2] = target: B3; assay: fluorescence polarisation; anisotropy titration of MatP (50 nM MatP-Alexa 488, 96 nM total MatP) with unlabelled FtsZ; 50 mM Tris-HCl pH 7.5, 5 mM MgCl2, 100 mM KCl; simple 1:1 model, apparent Kd = FtsZ concentration at half of the maximum signal; details: both partners purified
[3] = target: the molecule itself; assay: fluorescence correlation spectroscopy; dilute solution buffer: 50 mM Tris-HCl pH 7.5, 5 mM MgCl2, 100 mM KCl, 0.05 g/L BSA; 10 uM MatP with 10 nM MatP-Alexa 488 as tracer, alone or with 20 uM unlabelled FtsZ, no GTP; at 300 mM KCl the profiles of MatP and FtsZ/MatP overlapped
[4] = target: the molecule itself; assay: AUC; sedimentation velocity, dilute solution buffer with 100 mM KCl, GTP and GTP regeneration system, Rayleigh interference; FtsZ polymers with or without MatP

B1: binds (FtsZ [1]).

With B2 the Kd (FtsZ [2]) was 8 µM and 18 µM and the “stoichiometry N” value [3] was 2.

B3: binds [4].
